Test results reported in publication PMC9377797, “Hypoxia-induced proteasomal degradation of DBC1 by SIAH2 in breast cancer progression” (eLife, 2022).

Legend:
His-DBC1 = biological target: T1, His-DBC1 (human, UniProt Q8N163 1-923); assay: pull-down; GST-SIAH2 and His-DBC1 proteins from E. coli incubated in vitro overnight, GST beads for 2 hr at 4°C; blotted with an anti-DBC1 antibody; settings: both partners purified
T1 construct: Deleted in breast cancer 1 (DBC1, CCAR2), human; also called His-tagged DBC1; source: E. coli BL21, purified

[1] = biological target: T2, N-terminal half of His-DBC1 (1–461) (human, UniProt Q8N163 1-461); assay: as above; settings: both partners purified
T2 construct: source: bacterially expressed (E. coli)
T2 sequence (Q8N163 1-461): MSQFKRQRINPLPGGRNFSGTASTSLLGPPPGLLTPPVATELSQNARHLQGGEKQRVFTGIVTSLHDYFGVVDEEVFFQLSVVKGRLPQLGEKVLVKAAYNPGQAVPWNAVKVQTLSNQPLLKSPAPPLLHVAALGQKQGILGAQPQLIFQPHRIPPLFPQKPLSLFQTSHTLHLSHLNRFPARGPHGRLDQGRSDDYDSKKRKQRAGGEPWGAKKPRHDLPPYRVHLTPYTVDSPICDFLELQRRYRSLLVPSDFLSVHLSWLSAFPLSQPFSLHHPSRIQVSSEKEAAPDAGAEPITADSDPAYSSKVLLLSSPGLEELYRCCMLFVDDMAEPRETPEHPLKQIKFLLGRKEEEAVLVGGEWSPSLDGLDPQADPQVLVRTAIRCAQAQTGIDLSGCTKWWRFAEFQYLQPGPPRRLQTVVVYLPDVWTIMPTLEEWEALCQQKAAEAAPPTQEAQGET

T1 sequence (Q8N163 whole entry): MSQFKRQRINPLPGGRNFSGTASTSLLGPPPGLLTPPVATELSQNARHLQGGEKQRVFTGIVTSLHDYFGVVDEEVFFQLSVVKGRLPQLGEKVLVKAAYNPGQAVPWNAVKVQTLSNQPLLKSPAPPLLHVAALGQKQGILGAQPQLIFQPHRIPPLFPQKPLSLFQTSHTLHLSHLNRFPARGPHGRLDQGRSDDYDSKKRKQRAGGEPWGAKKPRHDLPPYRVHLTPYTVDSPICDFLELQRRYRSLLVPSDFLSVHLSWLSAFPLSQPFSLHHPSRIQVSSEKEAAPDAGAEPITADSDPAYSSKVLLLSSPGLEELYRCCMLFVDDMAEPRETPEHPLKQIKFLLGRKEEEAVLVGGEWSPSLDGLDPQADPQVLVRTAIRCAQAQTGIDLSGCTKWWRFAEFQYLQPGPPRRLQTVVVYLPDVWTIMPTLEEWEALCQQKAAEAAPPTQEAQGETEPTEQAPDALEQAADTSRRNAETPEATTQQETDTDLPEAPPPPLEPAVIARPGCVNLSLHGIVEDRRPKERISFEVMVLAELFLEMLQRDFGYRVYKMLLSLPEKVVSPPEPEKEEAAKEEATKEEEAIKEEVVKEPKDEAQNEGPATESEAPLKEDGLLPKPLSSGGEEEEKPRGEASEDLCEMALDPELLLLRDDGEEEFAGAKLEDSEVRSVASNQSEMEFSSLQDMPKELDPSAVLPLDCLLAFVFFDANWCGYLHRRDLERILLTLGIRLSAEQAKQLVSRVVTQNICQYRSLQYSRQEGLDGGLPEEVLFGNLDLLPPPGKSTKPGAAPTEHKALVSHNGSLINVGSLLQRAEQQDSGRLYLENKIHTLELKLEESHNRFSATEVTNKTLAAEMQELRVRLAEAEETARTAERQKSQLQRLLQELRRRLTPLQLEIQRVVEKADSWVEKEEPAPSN

binding result (His-DBC1): binds
binding result [1]: binds
B1: GST-SIAH2 (enzyme, human, UniProt O43255 1-324, looked up)
chain: MSRPSSTGPSANKPCSKQPPPQPQHTPSPAAPPAAATISAAGPGSSAVPAAAAVISGPGGGGGAGPVSPQHHELTSLFECPVCFDYVLPPILQCQAGHLVCNQCRQKLSCCPTCRGALTPSIRNLAMEKVASAVLFPCKYATTGCSLTLHHTEKPEHEDICEYRPYSCPCPGASCKWQGSLEAVMSHLMHAHKSITTLQGEDIVFLATDINLPGAVDWVMMQSCFGHHFMLVLEKQEKYEGHQQFFAIVLLIGTRKQAENFAYRLELNGNRRRLTWEATPRSIHDGVAAAIMNSDCLVFDTAIAHLFADNGNLGINVTISTCCP
notes: E3 ubiquitin ligase SIAH2, human, wild type; also called GST-tagged SIAH2; purified glutathione S-transferase (GST) SIAH2; source: E. coli BL21, purified
